± gives the uncertainty stated by the source.

The nature of this data set: amyloid nucleation score (Sup35N fusion, yeast selection) (log enrichment); library NNK2; higher = more nucleation; inactive = no reads after selection. In short, it runs like this: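 After 24 hours of induction with 100 μM copper sulfate, psi-negative yeast expressing peptides of 20 random codons fused to Sup35N were grown for 7 days at 30°C on medium lacking adenine and uracil. Input and output plasmid inserts were sequenced with Illumina, and sequences with under 100 input reads were discarded. Scores for nucleation are the DiMSum log enrichment of output over input reads, centred on the mode score of non-aggregating sequences.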
As to SSGLH, the amyloid nucleation score turned out to be 0.527 ± 0.8.

In the case of SSHLGTFLSDRGKSWVSGND, the amyloid nucleation score was -0.569 ± 0.55.

With SSIRKDNRGCAHGGLVVER, the amyloid nucleation score amounted to 0.698 ± 0.44.

SSKSHLSLLK came in with an amyloid nucleation score of -0.849 ± 0.4.

In the case of SSLEFYVFWYP, the amyloid nucleation score is -1.14 ± 1.

In turn, SSLNM came in with an amyloid nucleation score of -0.595 ± 0.61.

SSLVNTACDTL came in with an amyloid nucleation score of -0.036 ± 0.29.

SSLYHLAGHGTAGSRLTSGR came in with an amyloid nucleation score of 0.511 ± 0.41.

In the case of SSMGIVGPYGWFSTSMVNIV, the amyloid nucleation score stood at 0.895 ± 0.28.

As for SSNALKGDGSFGQNEVESAK, the amyloid nucleation score is -0.043 ± 0.32.

In turn, SSNYYVLCFTMPYWFYSLV registered an amyloid nucleation score of 1.02 ± 0.33.

For the substance SSQTGTCFARLQSAVFQVVW, the amyloid nucleation score worked out at 1.69 ± 0.36.

In turn, SSREYEEGMAGTGGLELLSL showed an amyloid nucleation score of 1.16 ± 0.44.

With SSRQTVGNTPASDLLRDYCW, the amyloid nucleation score is 0.388 ± 0.38.

Turning to SSRTPNYA, the amyloid nucleation score result is “inactive”.

With SSRVVVLNYATRRGGQVSGR, the amyloid nucleation score is 0.496 ± 0.38.

Regarding SSTSLLNLPCWDRIFHTVRL, the amyloid nucleation score was -0.429 ± 0.42.

For the substance SSTWLGLS, the amyloid nucleation score amounted to 0.112 ± 1.1.

Take SSWLEVAMTALRSIWYMD: the amyloid nucleation score was determined as 0.103 ± 0.26.

In the case of SSYGFINYMTS, the amyloid nucleation score result was “inactive”.

Substance SSYNSGLRLLSFTCCV had an amyloid nucleation score of 9.355 ± 0.052.

Consider SSYVVNSERVSDVARHSTLQ, for which the amyloid nucleation score was 1.91 ± 0.21.

Substance STCTLKCWRWMPWTSFSFRC displayed an amyloid nucleation score of 1.3 ± 0.21.

Take STEAVMLQGVFHRSCCR: the amyloid nucleation score was 0.761 ± 0.46.

STEERRWNN came in with an amyloid nucleation score of -0.217 ± 0.79.

STKSSVAVGSDSWNRSHRQV yielded an amyloid nucleation score of 0.773 ± 0.22.

Turning to STLGPLGPSGYSRRARRLLA, the amyloid nucleation score is 7.415 ± 0.06.

The substance STMLWLCFFMGKLSVDTVFE displayed an amyloid nucleation score of -0.6 ± 0.53.

Consider STTVTLGQSICFYLSCGLRD, for which the amyloid nucleation score was 9.214 ± 0.051.

Consider SVANERR, for which the amyloid nucleation score stood at 5.7 ± 0.065.

Substance SVCVWAYACRDRTPLLGRFC displayed an amyloid nucleation score of 0.508 ± 0.56.

For SVDIGYS, the amyloid nucleation score worked out at 0.586 ± 0.81.

The substance SVDRVYGSTFIFSRGDR displayed an amyloid nucleation score of 8.113 ± 0.022.

SVECKCYYRL had an amyloid nucleation score of 5.59 ± 0.062.

Take SVEMRTNLTAGWRILIRWSS: the amyloid nucleation score was found to be 1.2 ± 0.14.

In turn, SVGEFSVRWAACGDLWCW registered an amyloid nucleation score of 0.725 ± 0.2.

In the case of SVGRHS, the amyloid nucleation score is -0.841 ± 0.62.

As for SVIEISECLERVVRWHRVAG, the amyloid nucleation score was found to be 1.76 ± 0.33.

Turning to SVKHGMLCYTLLDNMRCTVE, the amyloid nucleation score was -0.087 ± 0.26.

Substance SVKILPVISTTPFGV displayed an amyloid nucleation score of -0.922 ± 0.39.

Consider SVLEANMHAVWTGRYEN, for which the amyloid nucleation score is 0.713 ± 0.22.

Regarding SVNAIRTQGLRSRMQFMKTG, the amyloid nucleation score is -0.394 ± 1.1.

SVPRYRSLMKRCH displayed an amyloid nucleation score of 0.189 ± 0.32.

Consider SVQVMCQSWPLSPLFAPRHR, for which the amyloid nucleation score is 5.92 ± 0.039.

As to SVRGRNDESAMLTLQRELRY, the amyloid nucleation score is -0.343 ± 1.1.

The substance SVSLDMGFSLDSHMRGEGRS showed an amyloid nucleation score of 5.22 ± 0.057.

As for SVTVTSLWHGTEL, the amyloid nucleation score was -0.22 ± 1.1.

As to SVTYWGWPTILAVRKCLFNS, the amyloid nucleation score came to 2.5 ± 0.091.

SVVMTIHNIGWMLRCSGIVY yielded an amyloid nucleation score of -0.823 ± 0.56.

Regarding SVVVWDSSPCIGGSRVADS, the amyloid nucleation score was 0.56 ± 0.57.

The substance SVWCWDHSILLGFNLCNRKM returned an amyloid nucleation score of 6.648 ± 0.062.

SVWDYC registered an amyloid nucleation score of -0.053 ± 0.39.

SVYDPAYVLNMNTLSTSSNL had an amyloid nucleation score of 0.451 ± 0.33.

SVYEIYWRVT returned an amyloid nucleation score of -0.348 ± 0.65.

Take SVYENYRVTISLSRSSITSC: the amyloid nucleation score is -1.1 ± 0.61.

For SVYGQRNTIIFEFSWMRTAS, the amyloid nucleation score was found to be 7.492 ± 0.04.

The substance SVYVCVKWESVSVLVLY displayed an amyloid nucleation score of 1.86 ± 0.12.

Consider SWCFYMKGEWWYLLFHSNRS, for which the amyloid nucleation score is -1.73 ± 0.55.

Substance SWCIMALRTF had an amyloid nucleation score of 0.249 ± 0.65.

For SWCVNVLAYSEKAFSRCVVM, the amyloid nucleation score came out at 8.583 ± 0.048.

With SWEKIGDCYIRWYLLHAGCL, the amyloid nucleation score result was “inactive”.

SWELFSGAWTLGNRYPFRHK registered an amyloid nucleation score of -0.079 ± 0.55.

With SWETKVHIYMTDMLFSRHMS, the amyloid nucleation score is 2.63 ± 0.086.

In the case of SWKDYHN, the amyloid nucleation score entry is “inactive”.

In the case of SWLSYSVRSM, the amyloid nucleation score entry is “inactive”.

On to SWMRFVKKIRQDAVRAVLIG, for which the amyloid nucleation score amounted to 1.36 ± 0.4.

SWSWSMGGNFRMVWSL: the amyloid nucleation score turned out to be 5.33 ± 0.06.

For the substance SWTCHSFYFSDSFRHGYR, the amyloid nucleation score was 2.63 ± 0.069.

SWTSIVQIVILCGFRQWLAR came in with an amyloid nucleation score of 0.076 ± 0.39.

For SWWIVFWGHTTTRWNCSLGD, the amyloid nucleation score was -0.831 ± 0.35.

With SYAESLPLSDYNAVVRFPWT, the amyloid nucleation score was -0.304 ± 1.1.

Turning to SYCLDDMRPWLHESTLSLSM, the amyloid nucleation score is -0.033 ± 0.3.

Consider SYCYWMFSVLGGSSASEFRY, for which the amyloid nucleation score result is “inactive”.

The substance SYGMRTEWTVCIAIRLHASN registered an amyloid nucleation score of 1.31 ± 0.52.

For SYGVLGDLASGTSRTID, the amyloid nucleation score is -1.25 ± 0.64.

SYHWTGVFGLVHDFGLCCGS registered an amyloid nucleation score of 0.425 ± 0.38.

For SYIHRAWAYM, the amyloid nucleation score entry is “inactive”.

On to SYLKETMTGLLPLG, for which the amyloid nucleation score entry is “inactive”.

SYNLNSNRVESIDFSSIIIV returned an amyloid nucleation score of -0.459 ± 1.1.

As for SYNVFDVQIVLRYIVKLFTG, the amyloid nucleation score entry is “inactive”.

For the substance SYPVDEMMRFCLFVMDTGQL, the amyloid nucleation score turned out to be 0.106 ± 0.54.

SYRLYFFMGFDMLYLCMG gave an amyloid nucleation score of -0.177 ± 0.79.

With SYTVAYISYFMLLLDGWGNR, the amyloid nucleation score amounted to 0.815 ± 0.12.

SYVDNWNISRVYLRLTYSVY returned an amyloid nucleation score of -0.96 ± 0.49.

For SYVQMTDT, the amyloid nucleation score is -0.146 ± 1.

SYVVCSVIGYYDYLRSRPSC had an amyloid nucleation score of 9.631 ± 0.036.

Substance SYYEWARGTSVVLIAFVTSF registered an amyloid nucleation score of -0.189 ± 0.48.

SYYGFLSFCSKTCMPLMWLE gave an amyloid nucleation score of -0.844 ± 0.54.

Substance TADISLYLRHST gave an amyloid nucleation score of 6.442 ± 0.049.

As to TAFNIVSCSGLCSYYQFRF, the amyloid nucleation score was determined as 8.109 ± 0.03.

TAHYDVGC showed an amyloid nucleation score of -0.283 ± 1.

As to TANKLLVSIIKIEEYVSRGT, the amyloid nucleation score came out at 4.73 ± 0.058.

Regarding TAWHFPCRQRDLQLVSKVTG, the amyloid nucleation score entry was “inactive”.

Turning to TCCQDYLLIWYCMDSIRNVR, the amyloid nucleation score came to 9.611 ± 0.034.

Substance TCKVRLRHVDYNCIMVLLLM came in with an amyloid nucleation score of -0.359 ± 0.45.

Consider TCLSQQCTEIEWIKFTPMSR, for which the amyloid nucleation score was determined as 4.31 ± 0.056.

For the substance TCSGWTWRQGLLVLSCRMIL, the amyloid nucleation score stood at 0.287 ± 0.38.

TCSRERGRRWFGICASYSCE showed an amyloid nucleation score of 0.629 ± 0.47.

In turn, TCVALSYLVGGSALNS showed an amyloid nucleation score of -0.818 ± 0.78.

Substance TCVCWGPCRSV registered an amyloid nucleation score of -0.895 ± 1.

Regarding TCVRWYGNIW, the amyloid nucleation score is -0.424 ± 0.27.

For TCYWRGLAGYR, the amyloid nucleation score was 3.28 ± 0.14.

Consider TDCMPMHVYGDYYLMGMSRE, for which the amyloid nucleation score was -0.555 ± 0.33.

For TDCRFIIVYMVIGSFLYTRV, the amyloid nucleation score is -0.747 ± 1.1.

Consider TDHMHKISRVHRDKKMSVGF, for which the amyloid nucleation score was -0.707 ± 1.1.

Substance TDLECKQLG registered an amyloid nucleation score of 1.88 ± 0.11.

For TEELRRFCGSFCTGYISMVW, the amyloid nucleation score result was “inactive”.

With TEIHNT, the amyloid nucleation score result was “inactive”.

Substance TESGGSLYNPQLIPDIQGSH displayed an amyloid nucleation score of -0.552 ± 1.1.

With TFAIIRIII, the amyloid nucleation score is 1.37 ± 0.33.

In turn, TFHGFMCGQTLRGPFRLSWW showed an amyloid nucleation score of 3.95 ± 0.088.

In turn, TFKFWCVTKETEQHVSYASR yielded an amyloid nucleation score of 4.54 ± 0.067.

Take TFLSHEGRGLRCLYYHMMPG: the amyloid nucleation score is 3.79 ± 0.14.

Take TFLSSC: the amyloid nucleation score was 0.096 ± 0.32.

TFLWKFMLNVTTFFIFPKPV: the amyloid nucleation score is -1.77 ± 1.

Take TFMWVDSMP: the amyloid nucleation score was -0.525 ± 0.48.

In the case of TFNIGNELVT, the amyloid nucleation score was -0.99 ± 0.37.

Substance TFNLKPRFLFV showed an amyloid nucleation score of 5.18 ± 0.087.

For TFNLVILGVGHSHHFQRNNH, the amyloid nucleation score is 8.269 ± 0.046.

In turn, TFRLRECWCDADLRVGVMSL had an amyloid nucleation score of 0.778 ± 0.47.

Substance TFRWCHCYLTKEHVRFTCRA displayed an amyloid nucleation score of 1.55 ± 0.53.

In turn, TFSVQAVNLFSIWVLSGPGD returned an amyloid nucleation score of 8.02 ± 0.034.

In the case of TFTSRGMMSLGFGRR, the amyloid nucleation score was 6.01 ± 0.08.

In turn, TFVGSFEILAGNVLCVNKTK came in with an amyloid nucleation score of 6.031 ± 0.048.

Regarding TFVHIIHNFVGVQHFKKLGC, the amyloid nucleation score amounted to 5 ± 0.094.

TGAYI showed an amyloid nucleation score of -1.94 ± 0.75.

TGCDVLRIVTRMMGKNKRYF: the amyloid nucleation score was -0.047 ± 1.1.

On to TGCNFHGRRFRCGYNGLGNP, for which the amyloid nucleation score is -0.59 ± 0.37.

Consider TGDMQVAVYCVILGGFSMGM, for which the amyloid nucleation score is 4.44 ± 0.055.

TGFKCSLLTY registered an amyloid nucleation score of -0.91 ± 0.62.

In turn, TGGRNVHNCNNNHASSWPRC showed an amyloid nucleation score of -1.05 ± 0.76.

The substance TGHWQLQNSSQA came in with an amyloid nucleation score of 0.841 ± 0.28.

TGILMWAGLQVHV: the amyloid nucleation score amounted to 1.86 ± 0.13.

Consider TGWSGRGMVKSDPYRACGGD, for which the amyloid nucleation score was -0.11 ± 0.35.

For the substance TGYVTRIVAAFCSQKIFVWV, the amyloid nucleation score is -0.547 ± 0.49.

In the case of THDKLHFLAFVFSPLFLTTM, the amyloid nucleation score result was “inactive”.

The substance THSHTSCKDASSEMRSPCNV had an amyloid nucleation score of 0.264 ± 0.33.

Take THSNWTKNSVSSIYCIKILF: the amyloid nucleation score worked out at 6.647 ± 0.037.

For the substance THSWGFSLYTFLVYINLSYI, the amyloid nucleation score was -0.545 ± 1.

THTGLGG yielded an amyloid nucleation score of 0.654 ± 0.8.

The record behind these values is the supplement of paper PMC12042874.
